The target of the assay is T1, full-length human SRC, purified (human, UniProt P12931 1-536).
T1 construct: also called full-length SRC; not shown: GST, N-terminal, cleaved
Kind of assay: pull-down; His6-tagged PTP4A1 on Ni-NTA agarose beads (untreated, or treated with 0.5 mM H2O2 or 20 mM DTT for 1 hour); 0.5 μg SRC or 17.2 nmol GST-tagged SH3SH2 in 1 mL 60 mM HEPES pH 7.4, 5 mM MgCl2, 5 mM MnCl2, 1% BSA; 4°C, 2 hours; Western blotting. As to conditions: both partners purified.

B1: His6-tagged oxidized PTP4A1 (residues 1-160), bound to Ni-NTA agarose (domain or fragment, human, UniProt Q93096 1-160, looked up)
chain: MARMNRPAPVEVTYKNMRFLITHNPTNATLNKFIEELKKYGVTTIVRVCEATYDTTLVEKEGIHVLDWPFDDGAPPSNQIVDDWLSLVKIKFREEPGCCIAVHCVAGLGRAPVLVALALIEGGMKYEDAVQFIRQKRRGAFNSKQLLYLEKYRPKMRLRF
modifications: oxidized: disulfide bond between Cys104 and Cys49
notes: also called oxo-PTP4A1; source: E. coli BL21 (DE3), purified (Ni-NTA, cation exchange); beads incubated with 0.5 mM H2O2 for 1 hour; not shown: His6, N-terminal, kept
For the molecule B1, the binding result is “binds”.

B2: His6-tagged PTP4A1 (residues 1-160), untreated, bound to Ni-NTA agarose (domain or fragment, human, UniProt Q93096 1-160, looked up)
chain: B1 chain
notes: Not treated with H2O2 or DTT; also called protein tyrosine phosphatase 4A type 1; untreated beads containing both oxidized and reduced PTP4A1; source: E. coli BL21 (DE3), purified (Ni-NTA, cation exchange); not shown: His6, N-terminal, kept
B2: the binding result is recorded as “binds”.

(Values after article PMC9089796, “Oxidative stress promotes fibrosis in systemic sclerosis through stabilization of a kinase-phosphatase complex” (JCI Insight, 2022).)
